Test results: US20240343761A1, “APELINERGIC MACROCYCLES AND USES THEREOF” (priority 2021, published 2024)
Bridge positions count the residues as written; N and C are the ends. Square brackets hold non-standard residues; d marks the D form. Ends that are not written are not given here. d1Nal = N[C@H](Cc1cccc2ccccc12)C(=O)O; AllylGly = C=CC[C@H](N)C(=O)O

T1: YFP-tagged human APJ receptor (human, UniProt P35414 1-380)
T1 construct: whole, on cells; also called hAPJ; APJ WT; not shown: YFP tag
T1 sequence (looked up): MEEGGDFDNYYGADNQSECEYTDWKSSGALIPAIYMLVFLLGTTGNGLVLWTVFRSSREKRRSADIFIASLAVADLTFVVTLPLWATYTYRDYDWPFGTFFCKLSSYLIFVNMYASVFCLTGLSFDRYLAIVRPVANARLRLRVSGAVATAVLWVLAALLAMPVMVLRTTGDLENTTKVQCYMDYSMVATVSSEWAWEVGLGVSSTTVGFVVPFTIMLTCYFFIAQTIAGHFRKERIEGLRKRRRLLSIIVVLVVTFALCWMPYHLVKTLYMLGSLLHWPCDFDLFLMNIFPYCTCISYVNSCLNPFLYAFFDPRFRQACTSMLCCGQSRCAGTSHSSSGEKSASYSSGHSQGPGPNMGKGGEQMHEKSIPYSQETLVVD

T2: human APJ (transfected HEK293 cells, Gαi1 BRET assay) (human, UniProt P35414 1-380)
T2 sequence (looked up): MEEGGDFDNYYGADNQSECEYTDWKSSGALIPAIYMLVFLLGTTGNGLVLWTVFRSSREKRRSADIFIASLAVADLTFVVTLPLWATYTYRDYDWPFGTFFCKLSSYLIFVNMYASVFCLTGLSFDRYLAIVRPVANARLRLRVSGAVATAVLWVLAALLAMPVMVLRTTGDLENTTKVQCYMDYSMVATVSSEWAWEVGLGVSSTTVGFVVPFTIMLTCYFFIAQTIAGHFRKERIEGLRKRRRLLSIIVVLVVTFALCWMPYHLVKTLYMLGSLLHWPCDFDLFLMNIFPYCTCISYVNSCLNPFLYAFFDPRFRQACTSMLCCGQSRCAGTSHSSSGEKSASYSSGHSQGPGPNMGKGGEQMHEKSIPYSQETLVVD


Legend:
[1] = target: T1, YFP-tagged human APJ receptor; test: competitive radioligand binding, HEK293-hAPJ membranes
[2] = target: human APJ (transfected HEK293 cells, Gαi1 BRET assay) (human) (UniProt P35414); test: cell-based or functional assay
[3] = target: T2, human APJ (transfected HEK293 cells, …); test: cell-based or functional assay

Row | Ki [1] | EC50 Gαi1 [2] | Gαi1 Emax (%) [3] | Molecule
1 | 150 pM | 2880 pM | – | Ac-Ape17-Met15Nle (KT03-12) (peptide)
2 | 600 pM | – | 103% | H-[AllylGly]RLS[AllylGly]KGP[d1Nal] (staple 1-5) [Compound 42 (KT04-43)]
